Literature values in paper PMC7699679.

Assays:
[1] = target: CCR2 (Homo sapiens) (UniProt P41597)
[2] = target: CXCR1 (Homo sapiens) (UniProt P25024)
[3] = target: CXCR2 (Homo sapiens) (UniProt P25025)
[4] = target: C5aR (Homo sapiens) (UniProt P21730)
Chain of UniProt P21730 (P21730 whole entry): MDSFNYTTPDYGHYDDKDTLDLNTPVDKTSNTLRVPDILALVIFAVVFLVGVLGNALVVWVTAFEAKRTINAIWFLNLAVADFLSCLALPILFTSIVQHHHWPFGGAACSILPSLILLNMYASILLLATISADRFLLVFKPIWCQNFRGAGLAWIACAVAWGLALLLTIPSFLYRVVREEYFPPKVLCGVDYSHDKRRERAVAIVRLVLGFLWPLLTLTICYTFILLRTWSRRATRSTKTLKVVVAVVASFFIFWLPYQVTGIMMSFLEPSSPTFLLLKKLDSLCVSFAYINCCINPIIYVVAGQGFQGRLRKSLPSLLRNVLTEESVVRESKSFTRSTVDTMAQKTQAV

Chain of UniProt P25025 (P25025 whole entry): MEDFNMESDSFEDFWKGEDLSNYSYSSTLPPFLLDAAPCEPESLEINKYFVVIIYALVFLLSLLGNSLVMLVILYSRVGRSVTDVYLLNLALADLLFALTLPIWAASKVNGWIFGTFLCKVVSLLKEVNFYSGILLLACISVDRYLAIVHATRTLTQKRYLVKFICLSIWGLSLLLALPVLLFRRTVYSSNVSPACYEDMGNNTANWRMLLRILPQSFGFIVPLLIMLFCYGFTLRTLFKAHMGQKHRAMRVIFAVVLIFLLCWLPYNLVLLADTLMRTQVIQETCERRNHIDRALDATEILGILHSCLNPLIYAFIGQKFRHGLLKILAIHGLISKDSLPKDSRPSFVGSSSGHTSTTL
Chain of UniProt P25024 (P25024 whole entry): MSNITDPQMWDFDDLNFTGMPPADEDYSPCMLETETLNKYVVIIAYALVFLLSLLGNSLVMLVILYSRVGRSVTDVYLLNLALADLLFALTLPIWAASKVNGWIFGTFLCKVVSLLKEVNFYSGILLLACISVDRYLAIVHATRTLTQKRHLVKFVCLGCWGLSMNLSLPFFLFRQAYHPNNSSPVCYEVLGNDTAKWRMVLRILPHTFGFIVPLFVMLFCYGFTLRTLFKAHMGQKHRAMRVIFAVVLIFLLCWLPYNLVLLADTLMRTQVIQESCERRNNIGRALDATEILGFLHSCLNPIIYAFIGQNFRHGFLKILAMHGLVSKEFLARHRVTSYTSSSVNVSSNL
Chain of UniProt P41597 (P41597 whole entry): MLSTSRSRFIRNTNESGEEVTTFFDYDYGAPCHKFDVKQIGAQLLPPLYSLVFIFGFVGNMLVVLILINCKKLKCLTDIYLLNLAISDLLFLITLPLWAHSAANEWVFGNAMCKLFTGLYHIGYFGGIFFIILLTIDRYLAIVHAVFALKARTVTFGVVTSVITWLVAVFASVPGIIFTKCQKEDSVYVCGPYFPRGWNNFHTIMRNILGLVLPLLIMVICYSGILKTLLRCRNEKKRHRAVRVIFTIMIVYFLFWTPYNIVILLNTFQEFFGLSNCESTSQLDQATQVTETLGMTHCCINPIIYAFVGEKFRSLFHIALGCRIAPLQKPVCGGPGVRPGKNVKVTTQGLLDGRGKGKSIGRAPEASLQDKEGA

| Substance | Kd [1] [nM] | Kd [2] [nM] | Kd [3] [nM] | Kd [4] [nM] |
| --- | --- | --- | --- | --- |
| HlgA (from UniProt Q5HDD6) | 3.51 | 5.69 | 27.2 |  |
| HlgC (from UniProt Q07227) |  |  |  | 5.64 |
